T1: endogenous mouse IRF3 (mouse (endogenous in peritoneal macrophages)), P70671
T1 chain: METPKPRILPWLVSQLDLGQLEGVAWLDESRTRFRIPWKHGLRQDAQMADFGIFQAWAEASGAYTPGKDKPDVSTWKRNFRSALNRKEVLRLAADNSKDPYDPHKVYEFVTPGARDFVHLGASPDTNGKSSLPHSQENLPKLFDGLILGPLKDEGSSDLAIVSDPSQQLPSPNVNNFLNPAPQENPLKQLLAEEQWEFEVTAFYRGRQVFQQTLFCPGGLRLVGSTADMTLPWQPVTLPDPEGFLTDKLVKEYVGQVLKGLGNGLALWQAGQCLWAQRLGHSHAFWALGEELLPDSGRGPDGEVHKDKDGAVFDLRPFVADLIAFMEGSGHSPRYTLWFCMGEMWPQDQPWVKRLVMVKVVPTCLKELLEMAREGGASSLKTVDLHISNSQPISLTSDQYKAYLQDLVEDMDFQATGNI

T2: endogenous IRF3 (human (endogenous in HEK293)), Q14653
T2 chain: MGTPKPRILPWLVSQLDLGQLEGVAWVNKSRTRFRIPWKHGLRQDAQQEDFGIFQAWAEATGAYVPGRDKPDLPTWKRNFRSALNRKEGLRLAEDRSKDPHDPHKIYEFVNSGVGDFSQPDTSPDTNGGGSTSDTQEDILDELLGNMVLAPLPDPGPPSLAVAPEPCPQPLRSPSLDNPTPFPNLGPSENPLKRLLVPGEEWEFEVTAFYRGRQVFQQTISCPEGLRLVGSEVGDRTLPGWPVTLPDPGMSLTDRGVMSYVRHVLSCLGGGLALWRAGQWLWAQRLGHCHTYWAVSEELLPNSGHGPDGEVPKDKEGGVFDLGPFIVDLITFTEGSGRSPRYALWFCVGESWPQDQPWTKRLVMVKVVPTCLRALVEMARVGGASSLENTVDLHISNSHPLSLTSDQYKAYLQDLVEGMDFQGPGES


How the values were obtained:
[1] = target: T1, endogenous mouse IRF3 (mouse …); assay: native gel or EMSA; S5 fractions of stimulated cells on 9% native PAGE (0.4% Doc-Na in running buffer, 4 °C); immunoblot of IRF3; details: remark: other sources report otherwise
[2] = target: T2, endogenous IRF3 (human (endogenous in …)); assay: as above; details: remark: other sources report otherwise

stoichiometry N [1] | stoichiometry N [2] | Binder
2 | – | endogenous mouse IRF3, P70671 1-419 (natural protein) METPKPRILPWLVSQLDLGQLEGVAWLDESRTRFRIPWKHGLRQDAQMADFGIFQAWAEASGAYTPGKDKPDVSTWKRNFRSALNRKEVLRLAADNSKDPYDPHKVYEFVTPGARDFVHLGASPDTNGKSSLPHSQENLPKLFDGLILGPLKDEGSSDLAIVSDPSQQLPSPNVNNFLNPAPQENPLKQLLAEEQWEFEVTAFYRGRQVFQQTLFCPGGLRLVGSTADMTLPWQPVTLPDPEGFLTDKLVKEYVGQVLKGLGNGLALWQAGQCLWAQRLGHSHAFWALGEELLPDSGRGPDGEVHKDKDGAVFDLRPFVADLIAFMEGSGHSPRYTLWFCMGEMWPQDQPWVKRLVMVKVVPTCLKELLEMAREGGASSLKTVDLHISNSQPISLTSDQYKAYLQDLVEDMDFQATGNI
– | 2 | endogenous IRF3, Q14653 1-427 (natural protein) MGTPKPRILPWLVSQLDLGQLEGVAWVNKSRTRFRIPWKHGLRQDAQQEDFGIFQAWAEATGAYVPGRDKPDLPTWKRNFRSALNRKEGLRLAEDRSKDPHDPHKIYEFVNSGVGDFSQPDTSPDTNGGGSTSDTQEDILDELLGNMVLAPLPDPGPPSLAVAPEPCPQPLRSPSLDNPTPFPNLGPSENPLKRLLVPGEEWEFEVTAFYRGRQVFQQTISCPEGLRLVGSEVGDRTLPGWPVTLPDPGMSLTDRGVMSYVRHVLSCLGGGLALWRAGQWLWAQRLGHCHTYWAVSEELLPNSGHGPDGEVPKDKEGGVFDLGPFIVDLITFTEGSGRSPRYALWFCVGESWPQDQPWTKRLVMVKVVPTCLRALVEMARVGGASSLENTVDLHISNSHPLSLTSDQYKAYLQDLVEGMDFQGPGES

Source: publication PMC10415273
